# Substitutions are numbered along the chain they refer to. In names and notes the source's numbering stands. *1 amine or outer side, *2 acyl side, *3 side chain or, on linkers, in order; H or OH if unused. Where a SMILES comes first, the peptide text is derived from it. The star is where a group is joined. pNA = O=[N+]([O-])c1ccc(N*)cc1; Suc = O=C(CCC(=O)[*:2])[*:1]
# B1: B. amyloliquefaciens subtilisin variant L217 (Tyr217 to Leu) (Bacillus amyloliquefaciens; Y324L) (protein)
# chain: AQSVPYGVSQIKAPALHSQGYTGSNVKVAVIDSGIDSSHPDLKVAGGASMVPSETNPFQDNNSHGTHVAGTVAALNNSIGVLGVAPSASLYAVKVLGADGSGQYSWIINGIEWAIANNMDVINMSLGGPSGSAALKAAVDKAVASGVVVVAAAGNEGTSGSSSTVGYPGKYPSVIAVGAVDSSNQRASFSSVGPELDVMAPGVSIQSTLPGNKYGALNGTSMASPHVAGAAALILSKHPNWTNTQVRSSLENTTTKLGDSFYYGKGLINVQAAAQ
# notes: at various amino acid residues within the mature form of the subtilisin molecule; made in house
# B2: B. amyloliquefaciens subtilisin variant H104 (Tyr104 to His) (Bacillus amyloliquefaciens; Y211H) (protein)
# chain: B1 chain with Y104H, L217Y
# notes: as for B1
# B3: B. amyloliquefaciens subtilisin variant K166/A222 (Bacillus amyloliquefaciens; G273K/M329A) (protein)
# chain: B1 chain with G166K, L217Y, M222A
# notes: as for B1
# B4: B. amyloliquefaciens subtilisin variant A222 (Met222 to Ala) (Bacillus amyloliquefaciens; M329A) (protein)
# chain: B1 chain with L217Y, M222A
# notes: as for B1
# B5: B. amyloliquefaciens subtilisin deletion mutant S153/S156/A158/G159/S160/Δ161-164/I165/S166/A169/R170 (Bacillus amyloliquefaciens; … (protein)
# chain: AQSVPYGVSQIKAPALHSQGYTGSNVKVAVIDSGIDSSHPDLKVAGGASMVPSETNPFQDNNSHGTHVAGTVAALNNSIGVLGVAPSASLYAVKVLGADGSGQYSWIINGIEWAIANNMDVINMSLGGPSGSAALKAAVDKAVASGVVVVAASGNSGAGSISYPARYPSVIAVGAVDSSNQRASFSSVGPELDVMAPGVSIQSTLPGNKYGAYNGTSMASPHVAGAAALILSKHPNWTNTQVRSSLENTTTKLGDSFYYGKGLINVQAAAQ
# notes: as for B1
# How the values were obtained:
# [1] = biological target: T1, B. amyloliquefaciens subtilisin, wild type (WT, Gly166) (Bacillus amyloliquefaciens, UniProt P00782); assay: Kinetics of hydrolysis of succinyl-Ala-Ala-Pro-X-p-nitroanilide substrates (progress curve analysis); type: biochemical; details: for kcat/Kmx10^-4: Table XII, Ala (wild type) at position 152, synthetic p-nitroanilide substrate with label as P-1 amino acid
# T1 construct: at various amino acid residues within the mature form of the subtilisin molecule; made in house; host or cells: Bacillus subtilis (secreted, culture supernatant)
# T1 sequence (P00782 108-382): B1 chain with L217Y
# From the text: A change in substrate specificity is defined as a difference between the kcat/Km ratio of the precursor carbonyl hydrolase and that of the hydrolase mutant. The kcat/Km ratio is a measure of catalytic efficienty. Carbonyl hydrolase mutants with increased or diminished kcat/Km ratios are described in the examples. Generally, the objective will be to secure a mutant having a greater (numerically large) kcat/Km ratio for a given substrate, thereby enabling the use of the enzyme to more efficiently act on a target substrate. A substantial change in kcat/Km ratio is preferably at least 2-fold increase or decrease. However, smaller increases or decreases in the ratio (e.g., at least 1.5-fold) are also considered substantial. An increase in kcat/Km ratio for one substrate may be accompanied by a reduction in kcat/Km ratio for another substrate. […] Km and kcat are measured in accord with known procedures, as described in EPO Publication No. 0130756 or as described herein.
# (§1) Wild-type subtilisin was purified from B. subtilis culture supernatants expressing the B. amyloliquefaciens subtilisin gene (Wells, J.A., et al. (1983) Nucleic Acids Res. 11, 7911-7925) as previously described (Estell, D.A., et al. (1985) J. Biol. Chem. 260, 6518-6521). Details of the synthesis of tetrapeptide substrates having the form succinyl-L-AlaL-AlaL-ProL-[X]-p-nitroanilide (where X is the P1 amino acid) are described by DelMar, E.G., et al. (1979) Anal. Biochem. 99, 316-320. Kinetic parameters, Km(M) and kcat-(s-^1) were measured using a modified progress curve analysis (Estell, D.A., et al. (1985) J. Biol. Chem. 260, 6518-6521). Briefly, plots of rate versus product concentration were fit to the differential form of the rate equation using a non-linear regression algorithm. Errors in kcat and Km for all values reported are less than five percent. The various substrates in Table VIII are ranged in order of decreasing hydrophobicity. Nozaki, Y. (1971), J. Biol. Chem. 246, 2211-2217; Tanford C. (1978) Science 200, 1012).
# [2] = biological target: T2, B. amyloliquefaciens subtilisin variant S152 (Ala152 to Ser) (Bacillus amyloliquefaciens, UniProt P00782, A259S); assay: Kinetics of p-nitroanilide substrate hydrolysis, S152; type: biochemical; details: Table XII, Ser (S) at position 152; synthetic p-nitroanilide substrate with label as P-1 amino acid
# T2 construct: at various amino acid residues within the mature form of the subtilisin molecule; made in house
# From the text: as §1
# (§2) The wild type DNA sequence was mutated by the V152/P153 primer (Figure 20, line 4) using the above restriction-purification approach for the new Kpnl site. Other mutant primers (shaded sequences Figure 20; S152, line 5 and G152, line 6) mutated the new Kpnl site away and such mutants were isolated using the restriction-selection procedure as described above for loss of the Kpnl site.
# (§3) The results of these substitutions for the above synthetic substrates containing the P-1 amino acids Phe, Leu and Ala are shown in Table XII.
# [3] = biological target: T3, B. amyloliquefaciens subtilisin variant G152 (Ala152 to Gly) (Bacillus amyloliquefaciens, UniProt P00782, A259G); assay: Kinetics of p-nitroanilide substrate hydrolysis, G152; type: biochemical; details: Table XII, Gly (G) at position 152; synthetic p-nitroanilide substrate with label as P-1 amino acid
# T3 construct: made in house
# From the text: as §1, §2, §3
# [4] = substrate: C[C@H](NC(=O)CCC(=O)O)C(=O)N[C@@H](C)C(=O)N1CCC[C@H]1C(=O)N[C@@H](Cc1ccccc1)C(=O)Nc1ccc([N+](=O)[O-])cc1; assay: Kinetics of p-nitroanilide substrate hydrolysis, L217; type: biochemical, B. amyloliquefaciens; details: other: substrate sAAPFpNa; Km in M
# From the text: as §1
# Tyr217 has been substituted by all other 19 amino acids. Cassette mutagenesis as described in EPO publication No. 0130756 was used according to the protocol of Figure 22. The EcoRV restriction site was used for restriction-purification of pA217.
# Since this position is involved in substrate binding, mutations here effect kinetic parameters of the enzyme. […]
# [5] = substrate: C[C@H](NC(=O)CCC(=O)O)C(=O)N[C@@H](C)C(=O)N1CCC[C@H]1C(=O)N[C@@H](Cc1ccccc1)C(=O)Nc1ccc([N+](=O)[O-])cc1; assay: Kinetics of p-nitroanilide substrate hydrolysis, H104; type: biochemical, B. amyloliquefaciens; details: other: Table XI
# From the text: as §1
# (§4) Tyr104 has been substituted with Ala, His, Leu, Met and Ser. The method used was a modification of the site directed mutagenesis method. According to the protocol of Figure 19, a primer (shaded in line 4) introduced a unique Hindlll site and a frame shift mutation at codon 104. Restriction-purification for the unique Hindlll site facilitated the isolation of the mutant sequence. Restriction-selection against this Hindlll site using pimers in line 5 was used to obtain position 104 mutants.
# (§5) The substrates in Table XI were used to analyze the substrate specificity of these mutants.
# [6] = substrate: C[C@H](NC(=O)CCC(=O)O)C(=O)N[C@@H](C)C(=O)N1CCC[C@H]1C(=O)N[C@@H](C)C(=O)Nc1ccc([N+](=O)[O-])cc1; assay: as above; type: biochemical, B. amyloliquefaciens; details: other: Table XI
# From the text: as §1, §4, §5
# [7] = substrate: C[C@H](NC(=O)[C@H](Cc1ccccc1)NC(=O)CCC(=O)O)C(=O)N1CCC[C@H]1C(=O)N[C@@H](Cc1ccccc1)C(=O)Nc1ccc([N+](=O)[O-])cc1; assay: as above; type: biochemical, B. amyloliquefaciens; details: other: Table XI
# From the text: as §1, §4, §5
# [8] = substrate: C[C@H](NC(=O)[C@@H]1CCCN1C(=O)[C@H](C)NC(=O)[C@H](Cc1ccccc1)NC(=O)CCC(=O)O)C(=O)Nc1ccc([N+](=O)[O-])cc1; assay: as above; type: biochemical, B. amyloliquefaciens; details: other: Table XI
# From the text: as §1, §4, §5
# [9] = substrate: C[C@H](NC(=O)CCC(=O)O)C(=O)N[C@@H](C)C(=O)N1CCC[C@H]1C(=O)N[C@@H](Cc1ccccc1)C(=O)Nc1ccc([N+](=O)[O-])cc1; assay: Kinetics of p-nitroanilide substrate hydrolysis, K166/A222; type: biochemical, B. amyloliquefaciens; details: other: Table XIX
# From the text: as §1, with “1012). […]” for “1012).”
# [10] = substrate: C[C@H](NC(=O)CCC(=O)O)C(=O)N[C@@H](C)C(=O)N1CCC[C@H]1C(=O)N[C@@H](Cc1ccccc1)C(=O)Nc1ccc([N+](=O)[O-])cc1; assay: Kinetics of p-nitroanilide substrate hydrolysis, A222; type: biochemical, B. amyloliquefaciens; details: other: Table XIX
# From the text: as §1
# Although mutations at position 222 improve oxidation stability they also tend to increase the Km. In this case the A222 mutation was combined with the K166 mutation to give an enzyme with kcat and Km intermediate between the two parent enzymes.
# [11] = substrate: C[C@H](NC(=O)CCC(=O)O)C(=O)N[C@@H](C)C(=O)N1CCC[C@H]1C(=O)N[C@@H](Cc1ccccc1)C(=O)Nc1ccc([N+](=O)[O-])cc1; assay: Kinetics of p-nitroanilide substrate hydrolysis, deletion mutant; type: biochemical, B. amyloliquefaciens; details: other: Table V; substrate not given; Km in M
# From the text: The effect of deletion of residues 161 through 164 has been shown by comparing the activity of the wild type (WT) enzyme with a mutant enzyme containing this deletion as well as multiple substitutions (i.e., S153/S156/A158/G159/S160/0161-164/1165/S166/A169/R170). This produced the following results:
# as §1
# [12] = Table VIII, substrate succinyl-L-AlaL-AlaL-ProL-[X]-p-nitroanilide, X = label (P1 amino acid)
# T2 sequence (P00782 108-382 A259S): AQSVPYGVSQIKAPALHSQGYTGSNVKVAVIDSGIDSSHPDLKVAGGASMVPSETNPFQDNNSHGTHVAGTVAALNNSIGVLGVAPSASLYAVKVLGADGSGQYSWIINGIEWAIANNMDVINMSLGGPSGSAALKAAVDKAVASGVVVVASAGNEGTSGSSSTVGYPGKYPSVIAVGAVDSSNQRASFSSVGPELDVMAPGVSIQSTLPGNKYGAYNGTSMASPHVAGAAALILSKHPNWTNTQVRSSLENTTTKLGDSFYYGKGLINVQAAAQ
# T3 sequence (P00782 108-382 A259G): as the sequence (P00782 108-382 A259S) above, with S152G counted along it
molecule,measurement,setting,value
C[C@H](NC(=O)CCC(=O)O)C(=O)N[C@@H](C)C(=O)N1CCC[C@H]1C(=O)N[C@@H](CCC(=O)O)C(=O)Nc1ccc([N+](=O)[O-])cc1 [Glu] (Suc-AAPE-pNA),kcat,[1]; [12],0.54 S^-1
C[C@H](NC(=O)CCC(=O)O)C(=O)N[C@@H](C)C(=O)N1CCC[C@H]1C(=O)N[C@@H](C)C(=O)Nc1ccc([N+](=O)[O-])cc1 [Ala] (Suc-AAPA-pNA),kcat/Kmx10^-4,[2],0.2
same,kcat/Kmx10^-4,[3],<0.04
same,kcat/Kmx10^-4,[1],1.0
CC(C)C[C@H](NC(=O)[C@@H]1CCCN1C(=O)[C@H](C)NC(=O)[C@H](C)NC(=O)CCC(=O)O)C(=O)Nc1ccc([N+](=O)[O-])cc1 [Leu] (Suc-AAPL-pNA),kcat/Kmx10^-4,[2],0.5
same,kcat/Kmx10^-4,[3],0.4
same,kcat/Kmx10^-4,[1],10.0
C[C@H](NC(=O)CCC(=O)O)C(=O)N[C@@H](C)C(=O)N1CCC[C@H]1C(=O)N[C@@H](Cc1ccccc1)C(=O)Nc1ccc([N+](=O)[O-])cc1 [Phe] (Suc-AAPF-pNA),kcat/Kmx10^-4,[2],1.0
same,kcat/Kmx10^-4,[3],0.2
same,kcat,[1]; [12],50 S^-1
same,kcat/Kmx10^-4,[1],40.0
same,kcat,"[1]; Table XIII, Glu156/Gly166 (WT), synthetic substrate with label as P-1 residue",50.00 s-^1
B1,Km,[4],470 µM
B2,Km,[5],710 µM
same,kcat,[5],22.0 s-^1
same,kcat/Km,[5],31000 M⁻¹ s⁻¹
same,Km,[6],1900 µM
same,kcat,[6],2.0 s-^1
same,kcat/Km,[6],1000 M⁻¹ s⁻¹
same,Km,[7],410 µM
same,kcat,[7],38.0 s-^1
same,kcat/Km,[7],91000 M⁻¹ s⁻¹
same,Km,[8],150 µM
same,kcat,[8],2.4 s-^1
same,kcat/Km,[8],16000 M⁻¹ s⁻¹
B3,Km,[9],200 µM
same,kcat,[9],29 s-^1
B4,Km,[10],990 µM
same,kcat,[10],42 s-^1
B5,Km,[11],5 µM
